Literature values as cited in publication PMC8165686.

Target: Spike RBD (SARS-CoV-2) (UniProt P0DTC2)

ACE2 23-mer peptide 21-43 (from UniProt Q9BYF1)
Kd: 47 nM
